The target in assay [1] is T1, calcineurin (CN A–CN B heterodimer), recombinant (UniProt Q08209;P63098).
Assay [2] has as its target rhodamine-CN (calcineurin labelled with tetramethylrhodamine acceptor) (UniProt Q08209;P63098, tetramethylrhodamine label on CN (chain and site not stated)). Briefly: FRET or BRET.
The target in assay [3] is T1, calcineurin (CN A–CN B heterodimer), …. Description: SEC-MALS.

Residue numbers refer to the chain shown, from its start. Names may count otherwise.

T1 sequence (P63098 16-170, one chain of several): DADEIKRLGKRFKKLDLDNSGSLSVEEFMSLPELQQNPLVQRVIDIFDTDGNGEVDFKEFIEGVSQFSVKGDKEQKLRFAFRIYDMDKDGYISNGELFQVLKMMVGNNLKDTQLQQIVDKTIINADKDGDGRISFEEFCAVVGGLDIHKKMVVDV

As for KRMEPAAIIITDTEIS (domain or fragment) [GST-AKAP79(333–348) I338A (PAAIIIT)], the Ki in assay [1] is 47 µM.
On the same count and under the same terms, in the case of KRMEAIAIIITDTEIS (domain or fragment) [GST-AKAP79(333–348) P337A (AIAIIIT)] it was 3.7 µM.

B1: GST-tagged wildtype AKAP79(333–408) (PIAIIIT) (domain or fragment)
chain: KRMEPIAIIITDTEISEFDVTKSKNVPKQFLISAENEQVGVFANDNGFEDRTSEQYETLLIETASSLVKNAIQLSI
As to B1, in assay [1], the Ki came out at 0.36 µM.

B2: ATTO425-AKAP79(333–408) I338P variant (PPAIIIT) (domain or fragment)
chain: B1 chain with I6P
modifications: ATTO 425 donor label (site not stated)
As to B2, in assay [2], the koff came out at 4.24 s⁻¹.

B3: AKAP79(333–408) (domain or fragment)
chain: B1 chain
Take B3: in assay [3], the “stoichiometry N” value turned out to be 1.

B4: GST-AKAP79(333–408) I338P T343A (PPAIIIA) (domain or fragment)
chain: B1 chain with I6P, T11A
For B4, the Ki in assay [1] stood at 12 µM.

B5: GST-AKAP79(333–408) T343A (PIAIIIA) (domain or fragment)
chain: B1 chain with T11A
Turning to B5, the Ki in assay [1] came to 39 µM.

B6: GST-AKAP79(333–408) I338P (PPAIIIT) (domain or fragment)
chain: B1 chain with I6P
Regarding B6, the Ki in assay [1] is 0.08 µM.

The values above are taken from PMC3294036 (Nature structural & molecular biology, 2012).
